Laboratory results published in article PMC11438860, “Human 8-oxoguanine glycosylase OGG1 binds nucleosome at the dsDNA ends and the super-helical locations”.

Tests used:
[1] = target: OGG1(K249Q) (human, UniProt O15527 1-345, K249Q); test: cryo-EM; protein:DNA 1.5:1; 8-oxoG flipped out, DNA bent 65 degrees; 3.6 A; EMSA: 40 mM HEPES pH 7.4, 50 mM NaCl, 5 mM bME, 5% glycerol, 30 min on ice, 4-20% native gel; cryo-EM OGG1-DNA assembly: 20 mM HEPES pH 7.4, 100 mM NaCl, 5 mM bME, on ice; conditions: protein: recombinant; tags: N-terminal 6His; blunt
OGG1(K249Q), sequence (O15527 whole entry K249Q): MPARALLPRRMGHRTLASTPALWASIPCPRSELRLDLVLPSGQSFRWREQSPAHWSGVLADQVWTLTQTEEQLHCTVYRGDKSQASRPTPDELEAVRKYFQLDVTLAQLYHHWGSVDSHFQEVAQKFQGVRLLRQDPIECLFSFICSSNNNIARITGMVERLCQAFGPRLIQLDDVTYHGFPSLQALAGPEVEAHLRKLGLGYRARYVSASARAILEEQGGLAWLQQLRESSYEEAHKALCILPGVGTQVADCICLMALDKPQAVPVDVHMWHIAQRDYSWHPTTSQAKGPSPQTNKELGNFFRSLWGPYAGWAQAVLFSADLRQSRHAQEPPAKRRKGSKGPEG

[2] = target: full-length OGG1 (EMSA) (human, UniProt O15527 1-345); test: EMSA; 2.5 uM DNA; all DNA shifted at 5 uM protein or above; two super-shift bands; EMSA: 40 mM HEPES pH 7.4, 50 mM NaCl, 5 mM bME, 5% glycerol, 30 min on ice, 4-20% native gel; cryo-EM OGG1-DNA assembly: 20 mM HEPES pH 7.4, 100 mM NaCl, 5 mM bME, on ice; conditions: protein: recombinant; blunt
full-length OGG1 (EMSA), sequence (O15527 whole entry): as the sequence (O15527 whole entry K249Q) above, with Q249K counted along it

B1: 35-bp 8-oxoG DNA (dsDNA)
DNA 1: ATGCCTCGCAGAATCCCGCTGCCGAGGCCGCTCAA
DNA 2: TTGAGCGGCCTCGGCAGCGGGATTCTGCGAGGCAT
modifications: 8-oxo-dG at position 18 of strand 1 (text numbers it 17), within unmethylated Cp-8-oxoG
binding result [1]: binds
binding result [2]: binds
